Assay results reported in publication PMC11928522.

Experiments:
[1] = biological target: T1, LPA66-BFP;MBP-GFP-MORF8 (diffuse) (Arabidopsis thaliana;Arabidopsis …, UniProt Q9FI80;Q9LKA5 35-515;1-395, |); experiment: EMSA
T1 sequence 1: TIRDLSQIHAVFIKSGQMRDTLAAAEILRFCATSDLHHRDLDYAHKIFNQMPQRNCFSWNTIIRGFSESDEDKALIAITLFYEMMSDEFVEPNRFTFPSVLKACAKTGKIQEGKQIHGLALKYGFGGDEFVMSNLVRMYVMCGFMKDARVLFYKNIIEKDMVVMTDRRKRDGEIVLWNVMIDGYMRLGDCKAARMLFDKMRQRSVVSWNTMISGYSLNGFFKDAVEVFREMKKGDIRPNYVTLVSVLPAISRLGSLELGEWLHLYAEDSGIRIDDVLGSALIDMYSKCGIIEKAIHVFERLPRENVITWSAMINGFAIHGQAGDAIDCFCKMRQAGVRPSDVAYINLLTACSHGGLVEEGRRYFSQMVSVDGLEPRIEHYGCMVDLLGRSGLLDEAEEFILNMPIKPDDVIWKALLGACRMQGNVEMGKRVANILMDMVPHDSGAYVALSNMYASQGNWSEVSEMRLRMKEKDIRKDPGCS
T1 sequence 2: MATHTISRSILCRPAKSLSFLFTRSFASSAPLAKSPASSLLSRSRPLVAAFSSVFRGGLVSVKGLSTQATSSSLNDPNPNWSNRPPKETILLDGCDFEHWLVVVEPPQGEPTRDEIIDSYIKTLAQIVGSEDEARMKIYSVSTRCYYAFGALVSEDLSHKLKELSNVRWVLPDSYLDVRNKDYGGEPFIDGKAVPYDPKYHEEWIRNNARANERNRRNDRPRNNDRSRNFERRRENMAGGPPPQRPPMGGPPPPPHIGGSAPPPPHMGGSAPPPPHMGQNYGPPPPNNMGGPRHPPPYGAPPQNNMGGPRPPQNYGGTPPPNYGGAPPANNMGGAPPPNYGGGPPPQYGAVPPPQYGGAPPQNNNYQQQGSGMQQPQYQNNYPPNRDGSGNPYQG

GFP-MORF8 (condensates) = biological target: T2, GFP-MORF8 (condensates) (Arabidopsis thaliana, UniProt Q9LKA5 1-395); experiment: condensate partitioning
T2 sequence: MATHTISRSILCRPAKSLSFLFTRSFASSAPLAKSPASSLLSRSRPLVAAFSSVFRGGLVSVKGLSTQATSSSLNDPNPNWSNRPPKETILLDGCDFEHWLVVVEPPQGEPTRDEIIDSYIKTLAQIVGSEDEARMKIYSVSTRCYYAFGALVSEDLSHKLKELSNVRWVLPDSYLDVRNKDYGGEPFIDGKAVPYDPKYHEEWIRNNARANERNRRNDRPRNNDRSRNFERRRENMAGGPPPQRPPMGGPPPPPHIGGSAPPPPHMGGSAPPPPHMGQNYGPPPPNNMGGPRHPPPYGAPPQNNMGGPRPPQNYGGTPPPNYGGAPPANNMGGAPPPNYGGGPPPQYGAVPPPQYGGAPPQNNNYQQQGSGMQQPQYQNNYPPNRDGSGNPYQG

LPA66-BFP = biological target: T3, LPA66-BFP (Arabidopsis thaliana, UniProt Q9FI80 35-515); experiment: EMSA after sedimentation
T3 sequence: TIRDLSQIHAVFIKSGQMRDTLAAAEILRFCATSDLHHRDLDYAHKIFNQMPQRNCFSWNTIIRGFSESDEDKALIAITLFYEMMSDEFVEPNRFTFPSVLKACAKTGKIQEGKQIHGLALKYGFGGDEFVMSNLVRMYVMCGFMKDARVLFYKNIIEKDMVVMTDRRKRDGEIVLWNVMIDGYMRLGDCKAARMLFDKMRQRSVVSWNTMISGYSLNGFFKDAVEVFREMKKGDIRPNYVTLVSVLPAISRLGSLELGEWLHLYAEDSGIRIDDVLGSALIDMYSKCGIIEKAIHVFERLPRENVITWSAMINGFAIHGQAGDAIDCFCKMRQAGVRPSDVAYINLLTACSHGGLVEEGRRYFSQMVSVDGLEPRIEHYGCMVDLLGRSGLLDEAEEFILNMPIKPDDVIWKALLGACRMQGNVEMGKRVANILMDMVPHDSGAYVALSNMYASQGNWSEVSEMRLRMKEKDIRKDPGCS

Measured: binding result

UAGCUGUACCUACCGUUUCUUUU (ssRNA) [psbF RNA probe]
binds: [1] | GFP-MORF8 (condensates) | LPA66-BFP
